Patent publication US20240376200A1 (Seagen, published 2024)
Numbering of substitutions follows the chain as printed.

B1: Vel-IPV-Ab1 Coil 106 (antibody, part only; not given: Ab1 heavy and light chains, part only)
heavy, part: QGASTSVDELQAEVDQLEDENYAYKTKVAQLRKKVEKLGSIPVSLRSG
light, part: QGASTTVAQLEEKVKTLRAENYEFKSEVQRLEEQVAQLGSIPVSLRSG
B2: Vel-IPV-Ab1 Coil 110 (antibody, part only; not given: Ab1 heavy and light chains, part only)
heavy, part: B1 heavy, part with Y24G
light, part: B1 light, part with F24W
B3: Vel-IPV-Ab1 Coil 103 (antibody, part only; not given: Ab1 heavy and light chains, part only)
heavy, part: B1 heavy, part with Y24G
light, part: B1 light, part with F24Y
B4: Vel-IPV-Ab1 Coil 111 (antibody, part only; not given: Ab1 heavy and light chains, part only)
heavy, part: B1 heavy, part with Y24G
light, part: B1 light, part
B5: Vel-IPV-Ab1 Coil 114 (antibody, part only; not given: Ab1 heavy and light chains, part only)
heavy, part: B1 heavy, part with Y24W
light, part: B1 light, part
B6: Vel-IPV-Ab1 Coil 107 (antibody, part only; not given: Ab1 heavy and light chains, part only)
heavy, part: B1 heavy, part with Y24S
light, part: B1 light, part
B7: Vel-IPV-Ab1 Coil 134 (antibody, part only; not given: Ab1 heavy and light chains, part only)
heavy, part: B1 heavy, part with Y24K
light, part: B1 light, part with F24I
B8: Vel-IPV-Ab1 Coil 149 (antibody, part only; not given: Ab1 heavy and light chains, part only)
heavy, part: B1 heavy, part with Y24I, V28I
light, part: B1 light, part with F24A
B9: Vel-IPV-Ab1 Coil 137 (antibody, part only; not given: Ab1 heavy and light chains, part only)
heavy, part: B1 heavy, part with Y24V
light, part: B1 light, part with F24L
B10: Vel-IPV-Ab1 Coil 145 (antibody, part only; not given: Ab1 heavy and light chains, part only)
heavy, part: B1 heavy, part with Y24L, V28I
light, part: B1 light, part with F24A
B11: Vel-IPV-Ab1 Coil 142 (antibody, part only; not given: Ab1 heavy and light chains, part only)
heavy, part: B1 heavy, part with Y24L, V28K
light, part: B1 light, part with F24L, V28I
B12: Vel-IPV-Ab1 Coil 138 (antibody, part only; not given: Ab1 heavy and light chains, part only)
heavy, part: B1 heavy, part with Y24L, V28L
light, part: B1 light, part with F24L, V28I
B13: Vel-IPV-Ab1 Coil 151 (antibody, part only; not given: Ab1 heavy and light chains, part only)
heavy, part: B1 heavy, part with Y24L, V28L
light, part: B1 light, part with F24L, V28L

molecular target: Antigen 1 (Ab1 target) expressed on HEK293 / HEK-293F cells; assay: saturation binding FACS, HEK293 cells
Sequence (P06756 31-1048, chain 1 of 2): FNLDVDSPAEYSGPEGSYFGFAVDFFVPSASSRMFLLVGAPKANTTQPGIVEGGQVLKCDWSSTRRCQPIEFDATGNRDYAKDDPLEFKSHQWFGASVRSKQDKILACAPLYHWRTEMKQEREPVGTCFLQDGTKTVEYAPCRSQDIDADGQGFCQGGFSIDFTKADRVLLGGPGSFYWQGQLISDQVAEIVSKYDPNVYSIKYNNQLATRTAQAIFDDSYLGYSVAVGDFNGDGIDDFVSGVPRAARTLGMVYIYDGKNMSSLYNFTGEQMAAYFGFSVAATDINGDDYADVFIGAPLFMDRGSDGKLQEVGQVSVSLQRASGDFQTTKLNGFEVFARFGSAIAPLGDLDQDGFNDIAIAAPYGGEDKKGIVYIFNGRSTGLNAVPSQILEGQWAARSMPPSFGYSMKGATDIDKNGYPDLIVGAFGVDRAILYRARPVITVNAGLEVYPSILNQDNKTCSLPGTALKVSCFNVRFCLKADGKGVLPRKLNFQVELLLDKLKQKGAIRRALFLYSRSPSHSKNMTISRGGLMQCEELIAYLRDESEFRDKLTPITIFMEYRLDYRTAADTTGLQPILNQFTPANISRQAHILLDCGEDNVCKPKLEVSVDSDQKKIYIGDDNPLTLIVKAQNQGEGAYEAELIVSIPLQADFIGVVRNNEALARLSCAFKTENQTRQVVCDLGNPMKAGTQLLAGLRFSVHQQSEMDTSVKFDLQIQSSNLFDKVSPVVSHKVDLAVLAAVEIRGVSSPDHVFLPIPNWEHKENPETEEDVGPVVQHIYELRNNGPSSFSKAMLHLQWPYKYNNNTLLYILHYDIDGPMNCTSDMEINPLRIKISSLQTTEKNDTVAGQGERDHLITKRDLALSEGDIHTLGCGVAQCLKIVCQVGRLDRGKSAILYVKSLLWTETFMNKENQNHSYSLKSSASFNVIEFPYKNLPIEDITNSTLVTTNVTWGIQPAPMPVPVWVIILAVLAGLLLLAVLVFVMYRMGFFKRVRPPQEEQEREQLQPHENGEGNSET
Sequence (P18564 22-788, chain 2 of 2, further chain): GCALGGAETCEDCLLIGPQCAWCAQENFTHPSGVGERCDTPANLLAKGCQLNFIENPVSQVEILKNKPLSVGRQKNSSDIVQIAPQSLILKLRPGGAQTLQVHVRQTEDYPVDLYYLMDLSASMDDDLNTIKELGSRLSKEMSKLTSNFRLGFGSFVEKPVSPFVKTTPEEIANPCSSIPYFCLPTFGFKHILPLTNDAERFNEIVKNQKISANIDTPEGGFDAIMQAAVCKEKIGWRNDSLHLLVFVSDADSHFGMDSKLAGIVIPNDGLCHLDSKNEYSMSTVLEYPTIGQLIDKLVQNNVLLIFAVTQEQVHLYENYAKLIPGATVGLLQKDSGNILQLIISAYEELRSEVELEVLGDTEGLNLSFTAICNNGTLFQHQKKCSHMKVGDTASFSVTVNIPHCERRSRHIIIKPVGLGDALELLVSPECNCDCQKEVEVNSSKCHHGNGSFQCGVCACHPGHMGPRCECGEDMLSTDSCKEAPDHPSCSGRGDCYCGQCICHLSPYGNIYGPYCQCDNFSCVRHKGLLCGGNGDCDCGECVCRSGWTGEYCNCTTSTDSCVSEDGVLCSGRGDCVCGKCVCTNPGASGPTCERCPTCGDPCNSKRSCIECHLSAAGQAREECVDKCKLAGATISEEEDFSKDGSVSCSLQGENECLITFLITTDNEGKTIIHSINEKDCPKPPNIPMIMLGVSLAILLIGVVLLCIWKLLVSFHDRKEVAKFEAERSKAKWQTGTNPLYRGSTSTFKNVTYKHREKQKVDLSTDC

EC50 [nM] | EC50 fold change from Ab1 [fold] | Binder
38.4 | 274 | B1
42.9 | 306 | B2
2.1 | 15 | B3
9.1 | 65 | B4
59.3 | 423 | B5
2.8 | 20 | B6

molecular target: recombinant Antigen 1 (recombinant Ab1 target; recombinant integrin αvβ6 antigen); assay: saturation binding ELISA
Sequence (P06756 31-992, chain 1 of 2): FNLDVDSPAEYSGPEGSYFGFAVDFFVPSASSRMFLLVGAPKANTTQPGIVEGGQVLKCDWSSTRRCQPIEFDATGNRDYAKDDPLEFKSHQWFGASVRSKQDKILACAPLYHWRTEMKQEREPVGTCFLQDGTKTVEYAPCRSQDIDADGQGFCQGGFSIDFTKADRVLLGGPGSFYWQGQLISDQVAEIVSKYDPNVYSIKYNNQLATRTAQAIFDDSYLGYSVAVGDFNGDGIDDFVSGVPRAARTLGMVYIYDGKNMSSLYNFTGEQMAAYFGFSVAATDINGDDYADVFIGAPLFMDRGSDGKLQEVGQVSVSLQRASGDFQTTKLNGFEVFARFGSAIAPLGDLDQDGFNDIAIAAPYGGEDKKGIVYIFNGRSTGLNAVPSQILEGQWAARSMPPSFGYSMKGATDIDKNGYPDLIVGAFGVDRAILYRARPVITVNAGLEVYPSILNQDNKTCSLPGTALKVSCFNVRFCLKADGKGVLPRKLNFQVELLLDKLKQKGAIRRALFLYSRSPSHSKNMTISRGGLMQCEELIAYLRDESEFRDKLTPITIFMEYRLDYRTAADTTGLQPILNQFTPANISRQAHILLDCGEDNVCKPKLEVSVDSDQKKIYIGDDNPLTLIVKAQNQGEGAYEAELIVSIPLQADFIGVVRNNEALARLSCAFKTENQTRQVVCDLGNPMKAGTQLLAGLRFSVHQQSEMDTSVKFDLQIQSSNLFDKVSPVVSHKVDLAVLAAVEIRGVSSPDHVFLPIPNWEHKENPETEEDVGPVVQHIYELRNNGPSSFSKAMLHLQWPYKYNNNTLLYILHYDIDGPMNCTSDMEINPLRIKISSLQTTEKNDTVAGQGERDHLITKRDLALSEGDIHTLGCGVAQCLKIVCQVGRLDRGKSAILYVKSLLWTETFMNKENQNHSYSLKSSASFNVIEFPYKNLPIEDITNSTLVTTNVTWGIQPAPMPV
Sequence (P18564 22-709, chain 2 of 2, further chain): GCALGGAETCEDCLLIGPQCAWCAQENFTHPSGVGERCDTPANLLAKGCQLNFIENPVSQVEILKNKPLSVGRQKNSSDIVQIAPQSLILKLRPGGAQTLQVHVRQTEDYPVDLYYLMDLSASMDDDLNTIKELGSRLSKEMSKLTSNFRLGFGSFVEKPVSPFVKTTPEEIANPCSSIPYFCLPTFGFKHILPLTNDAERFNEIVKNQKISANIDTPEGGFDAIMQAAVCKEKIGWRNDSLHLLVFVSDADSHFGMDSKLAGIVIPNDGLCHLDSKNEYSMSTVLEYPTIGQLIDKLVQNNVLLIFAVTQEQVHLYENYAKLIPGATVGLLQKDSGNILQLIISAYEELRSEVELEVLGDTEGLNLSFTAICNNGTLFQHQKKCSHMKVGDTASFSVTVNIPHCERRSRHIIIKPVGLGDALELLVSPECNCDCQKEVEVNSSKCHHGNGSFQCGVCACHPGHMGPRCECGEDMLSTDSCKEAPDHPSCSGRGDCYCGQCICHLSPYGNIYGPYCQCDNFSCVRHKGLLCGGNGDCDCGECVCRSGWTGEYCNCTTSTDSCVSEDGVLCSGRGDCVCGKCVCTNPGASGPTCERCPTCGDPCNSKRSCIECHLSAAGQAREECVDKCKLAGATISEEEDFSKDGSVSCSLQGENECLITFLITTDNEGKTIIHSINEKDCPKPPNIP

Binding Bmax (OD450) | EC50 [nM] | EC50 fold change from Ab1 [fold] | Binder
0.7 | 14.7 | 67 | B7
1.1 | 43.6 | 182 | B8
1.2 | 128 | 584 | B9
1.2 | 69.6 | 290 | B10
0.8 | 190 | 657 | B1
1 | 548 | 1890 | B2
1.8 | 101 | 461 | B11
0.6 | 75.3 | 260 | B3
1.3 | 619 | 2140 | B4
1.1 | 278 | 959 | B5
1.8 | 117 | 532 | B12
0.6 | 133 | 458 | B6
1.5 | 198 | 827 | B13
